# Paper PMC4339808
# Target: 70S ribosome (vacant) (E. coli MRE600)
row,Substance,"KM of the 70S ribosome-stimulated multiple turnover GTPase activity (0.01 uM protein, 100 uM GTP, 0 to 8 uM 70S) [µM]"
1,EF4 ΔA494 (from UniProt P60785 1-494) (domain or fragment),36
2,EF4 ΔP520 (from UniProt P60785 1-520) (domain or fragment),10
3,EF4 ΔG555 (from UniProt P60785 1-555) (domain or fragment),7
4,"Elongation Factor 4 (EF4/LepA), wild type (from UniProt P60785 1-599) (enzyme)",0.32
